Article PMC7666136

B1: eGFP-53BP1 (wild-type TP53-binding protein 1 tagged with enhanced green fluorescent protein) [not stated] / itself (parent)
chain: MDPTGSQLDSDFSQQDTPCLIIEDSQPESQVLEDDSGSHFSMLSRHLPNLQTHKENPVLDVVSNPEQTAGEERGDGNSGFNEHLKENKVADPVDSSNLDTCGSISQVIEQLPQPNRTSSVLGMSVESAPAVEEEKGEELEQKEKEKEEDTSGNTTHSLGAEDTASSQLGFGVLELSQSQDVEENTVPYEVDKEQLQSVTTNSGYTRLSDVDANTAIKHEEQSNEDIPIAEQSSKDIPVTAQPSKDVHVVKEQNPPPARSEDMPFSPKASVAAMEAKEQLSAQELMESGLQIQKSPEPEVLSTQEDLFDQSNKTVSSDGCSTPSREEGGCSLASTPATTLHLLQLSGQRSLVQDSLSTNSSDLVAPSPDAFRSTPFIVPSSPTEQEGRQDKPMDTSVLSEEGGEPFQKKLQSGEPVELENPPLLPESTVSPQASTPISQSTPVFPPGSLPIPSQPQFSHDIFIPSPSLEEQSNDGKKDGDMHSSSLTVECSKTSEIEPKNSPEDLGLSLTGDSCKLMLSTSEYSQSPKMESLSSHRIDEDGENTQIEDTEPMSPVLNSKFVPAENDSILMNPAQDGEVQLSQNDDKTKGDDTDTRDDISILATGCKGREETVAEDVCIDLTCDSGSQAVPSPATRSEALSSVLDQEEAMEIKEHHPEEGSSGSEVEEIPETPCESQGEELKEENMESVPLHLSLTETQSQGLCLQKEMPKKECSEAMEVETSVISIDSPQKLAILDQELEHKEQEAWEEATSEDSSVVIVDVKEPSPRVDVSCEPLEGVEKCSDSQSWEDIAPEIEPCAENRLDTKEEKSVEYEGDLKSGTAETEPVEQDSSQPSLPLVRADDPLRLDQELQQPQTQEKTSNSLTEDSKMANAKQLSSDAEAQKLGKPSAHASQSFCESSSETPFHFTLPKEGDIIPPLTGATPPLIGHLKLEPKRHSTPIGISNYPESTIATSDVMSESMVETHDPILGSGKGDSGAAPDVDDKLCLRMKLVSPETEASEESLQFNLEKPATGERKNGSTAVAESVASPQKTMSVLSCICEARQENEARSEDPPTTPIRGNLLHFPSSQGEEEKEKLEGDHTIRQSQQPMKPISPVKDPVSPASQKMVIQGPSSPQGEAMVTDVLEDQKEGRSTNKENPSKALIERPSQNNIGIQTMECSLRVPETVSAATQTIKNVCEQGTSTVDQNFGKQDATVQTERGSGEKPVSAPGDDTESLHSQGEEEFDMPQPPHGHVLHRHMRTIREVRTLVTRVITDVYYVDGTEVERKVTEETEEPIVECQECETEVSPSQTGGSSGDLGDISSFSSKASSLHRTSSGTSLSAMHSSGSSGKGAGPLRGKTSGTEPADFALPSSRGGPGKLSPRKGVSQTGTPVCEEDGDAGLGIRQGGKAPVTPRGRGRRGRPPSRTTGTRETAVPGPLGIEDISPNLSPDDKSFSRVVPRVPDSTRRTDVGAGALRRSDSPEIPFQAAAGPSDGLDASSPGNSFVGLRVVAKWSSNGYFYSGKITRDVGAGKYKLLFDDGYECDVLGKDILLCDPIPLDTEVTALSEDEYFSAGVVKGHRKESGELYYSIEKEGQRKWYKRMAVILSLEQGNRLREQYGLGPYEAVTPLTKAADISLDNLVEGKRKRRSNVSSPATPTASSSSSTTPTRKITESPRASMGVLSGKRKLITSEEERSPAKRGRKSATVKPGAVGAGEFVSPCESGDNTGEPSALEEQRGPLPLNKTLFLGYAFLLTMATTSDKLASRSKLPDGPTGSSEEEEEFLEIPPFNKQYTESQLRAGAGYILEDFNEAQCNTAYQCLLIADQHCRTRKYFLCLASGIPCVSHVWVHDSCHANQLQNYRNYLLPAGYSLEEQRILDWQPRENPFQNLKVLLVSDQQQNFLELWSEILMTGGAASVKQHHSSAHNKDIALGVFDVVVTDPSCPASVLKCAEALQLPVVSQEWVIQCLIVGERIGFKQHPKYKHDYVSH

Variants of: B1
Assay: Homo-FRET (FAIM, fluorescence anisotropy imaging) in live DIvA cells
Settings: with itself; live DIvA cell nuclei, N = 5 cells, two biological replicates; value is the box median; read off a plot

| screen value [delta r] | Variant |
| --- | --- |
| 0.01 | chain 1 Y1258A Y1259A |
